Experimental data: patent US20240002528A1 (University of Texas, published 2024)
One block for each binder: values may come before it.

What was measured:
[1] = molecular target: T1, full-length human cystinosin-LKG with a C-terminal Flag tag (human, UniProt O60931-2 23-400, limits assumed); assay: size-exclusion chromatography (gel filtration) of Cystinosin incubated with Fab3H5 at a 1:1.5 molar ratio, with a polyacrylamide gel of the peak fraction; the sheet is marked pH7.0
T1 construct: Expressed in HEK-293S GnTI- cells and purified in DDM then digitonin; It was reconstituted in amphipols for immunisation; also called recombinant human Cystinosin; wild-type (WT) human Cystinosin; not shown: C-terminal Flag tag
T1 sequence (looked up): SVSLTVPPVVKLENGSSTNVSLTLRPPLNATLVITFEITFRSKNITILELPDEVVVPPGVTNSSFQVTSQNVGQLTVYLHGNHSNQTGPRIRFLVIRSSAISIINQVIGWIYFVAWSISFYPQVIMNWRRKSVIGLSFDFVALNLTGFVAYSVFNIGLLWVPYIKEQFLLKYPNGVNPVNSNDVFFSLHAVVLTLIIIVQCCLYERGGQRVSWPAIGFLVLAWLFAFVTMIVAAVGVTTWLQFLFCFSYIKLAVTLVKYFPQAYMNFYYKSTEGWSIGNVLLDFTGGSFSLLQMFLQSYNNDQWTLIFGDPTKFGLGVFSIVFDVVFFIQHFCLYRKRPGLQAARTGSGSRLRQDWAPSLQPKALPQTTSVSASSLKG
Procedure: To assemble Cystinosin-Fab^3H5 complex, purified Cystinosin was incubated with Fab^3H5 at a 1:1.5 molar ratio at 4° C. for 30 minutes. The mixture was then purified by SEC using the aforementioned buffer (FIG. 1A). Peak fractions were collected and concentrated to […]. The isolated complex was then used for functional and structural studies. In particular the complex was used in Cryo-EM studies.

[2] = molecular target: T1, full-length human cystinosin-LKG with a …; assay: ELISA and immunoprecipitation screen of hybridoma supernatants; ELISA and immunoprecipitation screen of hybridoma clone (folded cystinosin)

binding result [1]: binds
B1: Fab3H5 (Fab fragment of IgG-3H5 generated by papain cleavage) (Fab, V domains shown)
VH: EVMLVESGGGLVKPGGSLKLSCAASGFTFSNYAMSWVRQTPEKRLEWVAAISGNEGTYTYYPDSVRGRFTISRDNARNNLYLQISSLRSEDTALYYCARYGLVGALDFWGQGAS
VL: DIQMNQSPSTLSASLGDTITITCRASQNIDVWLNWYQQKPGDIPKLLIYEASNLHTGVPSRFSGSGSGTDFTLAISSLQPEDIATYYCLQGQDYPFTFGSGTK
notes: The reaction was stopped with iodoacetamide

binding result [2]: binds
B2: IgG-3H5, a mouse monoclonal anti-human Cystinosin antibody (antibody, V domains shown)
VH: B1 VH
VL: B1 VL
notes: also called 3H5 antibody; monoclonal antibody 3H5
